The text below walks through data of publication PMC2574583 (2008).

For test [1], the target named is T1, CtIP phosphopeptide phosphopeptide (Homo sapiens, UniProt Q99708, also: phosphoserine (position not given here)).
T1 chain: PTRVSSPVFGAT
Kind of test: SPR. On the technique in general: In SPR one partner is held on a chip, and binding of the other changes the refractive index at the surface.

The target in test [2] is T2, BACH1-P phosphopeptide (Homo sapiens, UniProt Q9BX63, also: phosphoserine (position not given here)).
T2 chain: SRSTSPTFNK
Put plainly: ITC.

Test [3] deals with T3, bBACH1-P phosphopeptide (Homo sapiens, UniProt Q9BX63, also: phosphoserine (position not given here), biotin (position not given here)).
T3 chain: SRSTSPTFNK
Put plainly: SPR steady-state.

Test [4] has as its target T4, dBACH1-P phosphopeptide (Homo sapiens, UniProt Q9BX63, also: phosphoserine (position not given here)).
T4 chain: Dansyl-SRSTSPTFNK
Kind of test: fluorescence anisotropy. (In general: Fluorescence polarisation rises when a labelled molecule tumbles more slowly, as on binding a larger partner.)

The target of test [5] is T2, BACH1-P phosphopeptide. Kind of test: ITC. Background: In ITC the heat of successive injections is recorded.
Test [6] deals with T2, BACH1-P phosphopeptide. Put plainly: ITC.
Test [7] addresses T3, bBACH1-P phosphopeptide. Kind of test: SPR kinetics.
Test [8] has as its target T3, bBACH1-P phosphopeptide. Put plainly: SPR steady-state.
Test [9] has as its target T2, BACH1-P phosphopeptide. Kind of test: ITC.
Test [10] has as its target T4, dBACH1-P phosphopeptide. Put plainly: stopped-flow fluorescence.
For test [11], the target named is T3, bBACH1-P phosphopeptide. Kind of test: ITC.
For test [12], the target named is T3, bBACH1-P phosphopeptide. Put plainly: SPR kinetics.
For test [13], the target named is T2, BACH1-P phosphopeptide. Put plainly: ITC.
For test [14], the target named is T3, bBACH1-P phosphopeptide. Put plainly: SPR steady-state.
The target of test [15] is T4, dBACH1-P phosphopeptide. Put plainly: stopped-flow fluorescence.
The target of test [16] is T3, bBACH1-P phosphopeptide. Kind of test: SPR steady-state.

Like-named read-outs stand apart in the source and are kept apart here. Ends that are not written are not given here. * marks the point of attachment. Dansyl = CN(C)c1cccc2c(S(=O)(=O)*)cccc12

B1: BRCA1-BRCT 1646-1859 (protein)
chain: VNKRMSMVVSGLTPEEFMLVYKFARKHHITLTNLITEETTHVVMKTDAEFVCERTLKYFLGIAGGKWVVSYFWVTQSIKERKMLNEHDFEVRGDVVNGRNHQGPKRARESQDRKIFRGLEICCYGPFTNMPTDQLEWMVQLCGASVVKELSSFTLGTGVHPIVVVQPDAWTEDNGFHAIGQMCEAPVVTREWVLDSVALYQCQELDTYLIPQIP
Consider B1, for which the Kd in test [1] is 1300 nM; in test [2], 490 nM; in [3], 350 nM; in [4], 180 nM; in [5], 500 nM; in test [6], 410 nM. For the same molecule, the Kd in [7] turned out to be 90 nM; in test [8] it was 260 nM; in test [9] it was 280 nM; in test [10], 200 nM; in [11] it was 230 nM; in test [12], 430 nM. In addition, the Kd in [13] is 330 nM; in test [14], 560 nM; in test [15] it was 110 nM; in [16], 530 nM.

What is called Kd is the concentration at which binding is half-saturated.
